This note sets out measurements from FireProtDB (doi:10.1021/bi961660c).

“And” between values parts separate entries of the source, which are not always exact repeats. Equal values may be shown once.

To fix the notation:
B1: Tryptophan synthase alpha chain, P0A877 (parent)
chain: MERYESLFAQLKERKEGAFVPFVTLGDPGIEQSLKIIDTLIEAGADALELGIPFSDPLADGPTIQNATLRAFAAGVTPAQCFEMLALIRQKHPTIPIGLLMYANLVFNKGIDEFYAQCEKVGVDSVLVADVPVEESAPFRQAALRHNVAPIFICPPNADDDLLRQIASYGRGYTYLLSRAGVTGAENRAALPLNHLVAKLKEYNAAPPLQGFGISAPDQVKAAIDAGAAGAISGSAIVKIIEQHINEPEKMLAALKVFVQPMKAATRS

The variants in this series derive from B1. The following applies: Escherichia coli (strain K12), pH 7, 25 °C, GdnHCl, CD, Tris-HCl 20 mM, reversible: yes, structure 1WQ5, whole UniProt chain shown.

Turning to MERYESLFAQLKERKEGAFVPFVTLGDPGIEQSLKIIDTLIEAGADALELGIPFSDALADGPTIQNATLRAFAAGVTPAQCFEMLALIRQKHPTIPIGLLMYANLVFNKGIDEFYAQCEKVGVDSVLVADVPVEESAPFRQAALRHNVAPIFICPPNADDDLLRQIASYGRGYTYLLSRAGVTGAENRAALPLNHLVAKLKEYNAAPPLQGFGISAPDQVKAAIDAGAAGAISGSAIVKIIEQHINEPEKMLAALKVFVQPMKAATRS [P57A], the “ddG of mutation (higher = less stable)” value amounted to 0.48 kcal/mol and the unfolding free energy was determined as 7.73 kcal/mol. Moreover, for the setting “transition: 3”, the “ddG of mutation (higher = less stable)” value is 0.24 kcal/mol; the unfolding free energy is 4 kcal/mol and 3.76 kcal/mol.

MERYESLFAQLKERKEGAFVPFVTLGDPGIEQSLKIIDTLIEAGADALELGIPFSDPLADGPTIQNATLRAFAAGVTPAQCFEMLALIRQKHPTIPIGLLMYANLVFNKGIDEFYAQCEKVGVDSVLVADVAVEESAPFRQAALRHNVAPIFICPPNADDDLLRQIASYGRGYTYLLSRAGVTGAENRAALPLNHLVAKLKEYNAAPPLQGFGISAPDQVKAAIDAGAAGAISGSAIVKIIEQHINEPEKMLAALKVFVQPMKAATRS [P132A]: the “ddG of mutation (higher = less stable)” value is 1.05 kcal/mol and the unfolding free energy is 7.15 kcal/mol. In addition, for the setting “transition: 3”, the unfolding free energy is 3.33 kcal/mol and 3.85 kcal/mol.

In the case of MERYESLFAQLKERKEGAFVPFVTLGDPGIEQSLKIIDTLIEAGADALELGIPFSDPLADGPTIQNATLRAFAAGVTPAQCFEMLALIRQKHPTIPIGLLMYANLVFNKGIDEFYAQCEKVGVDSVLVADVPVEESAPFRQAALRHNVAPIFICPPNADDDLLRQIASYGRGYTYLLSRAGVTGAENRAALPLNHLVAKLKEYNAAAPLQGFGISAPDQVKAAIDAGAAGAISGSAIVKIIEQHINEPEKMLAALKVFVQPMKAATRS [P207A], the unfolding free energy (transition: 3) was 2.44 kcal/mol and 4.62 kcal/mol.

In the case of MERYESLFAQLKERKEGAFVPFVTLGDPGIEQSLKIIDTLIEAGADALELGIPFSDPLADGPTIQNATLRAFAAGVTPAQCFEMLALIRQKHPTIAIGLLMYANLVFNKGIDEFYAQCEKVGVDSVLVADVPVEESAPFRQAALRHNVAPIFICPPNADDDLLRQIASYGRGYTYLLSRAGVTGAENRAALPLNHLVAKLKEYNAAPPLQGFGISAPDQVKAAIDAGAAGAISGSAIVKIIEQHINEPEKMLAALKVFVQPMKAATRS [P96A], the “ddG of mutation (higher = less stable)” value amounted to 2.13 kcal/mol and the unfolding free energy amounted to 6.08 kcal/mol. Moreover, for the setting “transition: 3”, the “ddG of mutation (higher = less stable)” value is 1.6 kcal/mol and 0.55 kcal/mol; the unfolding free energy was 2.63 kcal/mol and 3.44 kcal/mol.

On to MERYESLFAQLKERKEGAFVPFVTLGDAGIEQSLKIIDTLIEAGADALELGIPFSDPLADGPTIQNATLRAFAAGVTPAQCFEMLALIRQKHPTIPIGLLMYANLVFNKGIDEFYAQCEKVGVDSVLVADVPVEESAPFRQAALRHNVAPIFICPPNADDDLLRQIASYGRGYTYLLSRAGVTGAENRAALPLNHLVAKLKEYNAAPPLQGFGISAPDQVKAAIDAGAAGAISGSAIVKIIEQHINEPEKMLAALKVFVQPMKAATRS [P28A], for which the “ddG of mutation (higher = less stable)” value is 1.91 kcal/mol and the unfolding free energy is 6.29 kcal/mol. Also, the unfolding free energy (transition: 3) was 2.27 kcal/mol and 4.04 kcal/mol.

Regarding MERYESLFAQLKERKEGAFVPFVTLGDPGIEQSLKIIDTLIEAGADALELGIPFSDPLADGATIQNATLRAFAAGVTPAQCFEMLALIRQKHPTIPIGLLMYANLVFNKGIDEFYAQCEKVGVDSVLVADVPVEESAPFRQAALRHNVAPIFICPPNADDDLLRQIASYGRGYTYLLSRAGVTGAENRAALPLNHLVAKLKEYNAAPPLQGFGISAPDQVKAAIDAGAAGAISGSAIVKIIEQHINEPEKMLAALKVFVQPMKAATRS [P62A], the “ddG of mutation (higher = less stable)” value came to 0.31 kcal/mol and the unfolding free energy was 7.89 kcal/mol. For the same variant, under “transition: 3”, the unfolding free energy is 3.54 kcal/mol and 4.35 kcal/mol.
